According to publication PMC6202051, “The DWORF micropeptide enhances contractility and prevents heart failure in a mouse model of dilated cardiomyopathy” (eLife, 2018):
Ends that are not written are not given here. YFP = yellow fluorescent protein

B1: yellow fluorescent protein (YFP)-PLN (natural protein, UniProt P61014 1-52, looked up)
chain: {YFP}-MEKVQYLTRSAIRRASTIEMPQQARQNLQNLFINFCLILICLLLICIIVMLL
modifications: cysteine pairing not given here
notes: phospholamban (PLN); In the PLN-PLN and PLN-DWORF FRET experiments one partner must have carried the donor (Cer); it may be another species (e.g. canine) in the cited FRET work; also called phospholamban; source: AAV-293 cells, transiently transfected, in live cells

Legend:
mCerulean (Cer)-SERCA2a [1] = target: mCerulean (Cer)-SERCA2a (UniProt O55143); assay: FRET or BRET; progressive acceptor photobleaching of YFP in live transfected AAV-293 cells; donor against acceptor fluorescence, a linear relationship taken as a 1:1 complex
Chain of mCerulean (Cer)-SERCA2a (UniProt O55143) (O55143 other isoform, or with tags, fused parts or gaps): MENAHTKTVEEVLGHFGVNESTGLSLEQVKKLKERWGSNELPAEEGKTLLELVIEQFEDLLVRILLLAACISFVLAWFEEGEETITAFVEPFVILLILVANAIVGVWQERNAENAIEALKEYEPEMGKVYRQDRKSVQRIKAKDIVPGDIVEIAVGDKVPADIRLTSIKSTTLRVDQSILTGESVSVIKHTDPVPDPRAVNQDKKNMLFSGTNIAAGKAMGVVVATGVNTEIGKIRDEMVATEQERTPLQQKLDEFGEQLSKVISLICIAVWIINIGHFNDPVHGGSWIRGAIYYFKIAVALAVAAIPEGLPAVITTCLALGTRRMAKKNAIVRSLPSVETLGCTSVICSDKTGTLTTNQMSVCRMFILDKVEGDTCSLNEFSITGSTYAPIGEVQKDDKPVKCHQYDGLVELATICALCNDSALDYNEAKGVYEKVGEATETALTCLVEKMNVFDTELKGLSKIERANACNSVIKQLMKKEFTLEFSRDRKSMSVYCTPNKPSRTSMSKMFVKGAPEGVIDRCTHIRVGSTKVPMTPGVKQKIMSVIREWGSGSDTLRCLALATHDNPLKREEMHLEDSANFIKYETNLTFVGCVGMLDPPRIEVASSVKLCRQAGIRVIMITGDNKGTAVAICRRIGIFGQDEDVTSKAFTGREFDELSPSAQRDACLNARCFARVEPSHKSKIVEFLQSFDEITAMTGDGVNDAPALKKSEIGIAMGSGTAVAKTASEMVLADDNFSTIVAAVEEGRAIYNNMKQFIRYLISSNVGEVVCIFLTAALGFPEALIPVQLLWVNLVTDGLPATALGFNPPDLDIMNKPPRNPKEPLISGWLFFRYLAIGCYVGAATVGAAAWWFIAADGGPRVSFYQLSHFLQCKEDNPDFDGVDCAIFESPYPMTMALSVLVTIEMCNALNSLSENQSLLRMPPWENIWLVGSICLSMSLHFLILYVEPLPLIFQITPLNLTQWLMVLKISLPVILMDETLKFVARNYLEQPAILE

mCerulean (Cer)-SERCA2a [2] = target: T1, mCerulean (Cer)-SERCA2a (UniProt O55143-2 1-998); assay: as above; settings: partners not purified
T1 construct: SERCA2a, the predominant cardiac isoform of the sarco(endo)plasmic reticulum Ca2+-ATPase; also called SR Ca2+-ATPase; source: AAV-293 cells, transiently transfected, in live cells
T1 sequence (O55143 other isoform, or with tags, fused parts or gaps): as above

| Molecule | stoichiometry N (mCerulean (Cer)-SERCA2a [1]) | stoichiometry N (mCerulean (Cer)-SERCA2a [2]) |
| --- | --- | --- |
| yellow fluorescent protein (YFP)-DWORF (peptide) | 1 | – |
| B1 | – | 1 |
